Laboratory results as given in publication PMC4954776 (Nature chemical biology, 2013).
Read-outs that look alike come from different tables or passages of the source.

Columns and labels:
AUC [1] = target: the molecule itself; experiment: AUC
AUC [2] = target: the molecule itself; experiment: AUC; remark: listed apart in the source

B1: BRAF^444-723 kinase domain with 16 solubilization mutations (domain or fragment)
chain: RDSSDDWEIPDGQITVGQRIGSGSFGTVYKGKWHGDVAVKMLNVTAPTPQQLQAFKNEVGVLRKTRHVNILLFMGYSTKPQLAIVTQWCEGSSLYHHLHASETKFEMKKLIDIARQTARGMDYLHAKSIIHRDLKSNNIFLHEDNTVKIGDFGLATVKSRWSGSHQFEQLSGSILWMAPEVIRMQDSNPYSFQSDVYAFGIVLYELMTGQLPYSNINNRDQIIEMVGRGSLSPDLSKVRSNCPKRMKRLMAECLKKKRDERPSFPRILAEIEELARELSG
Kd (AUC [1]): > 25 µM
Kd (AUC [2]): < 0.78 µM
